# Literature values, collected in article PMC5811392.
# Legend:
# [1] = molecular target: p53 (Homo sapiens) (UniProt P04637)
# [2] = molecular target: p53 DBD (Homo sapiens) (UniProt P04637)
# Chain of p53 DBD (Homo sapiens) (P04637 94-312): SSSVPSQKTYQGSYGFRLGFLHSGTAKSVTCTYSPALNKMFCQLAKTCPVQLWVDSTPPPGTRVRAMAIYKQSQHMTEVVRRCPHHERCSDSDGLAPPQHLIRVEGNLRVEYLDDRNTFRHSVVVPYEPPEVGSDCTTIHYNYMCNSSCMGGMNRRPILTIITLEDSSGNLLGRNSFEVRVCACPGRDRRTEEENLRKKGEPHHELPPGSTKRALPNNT
# Chain of BCL-xL (Q07817 whole entry): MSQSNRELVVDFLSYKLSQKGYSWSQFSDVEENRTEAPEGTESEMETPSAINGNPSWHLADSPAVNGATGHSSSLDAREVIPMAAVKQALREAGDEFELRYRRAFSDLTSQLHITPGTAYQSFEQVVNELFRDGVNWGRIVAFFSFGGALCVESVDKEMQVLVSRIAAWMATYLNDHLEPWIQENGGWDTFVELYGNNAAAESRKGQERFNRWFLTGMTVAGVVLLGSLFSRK
# Chain of p53 (Homo sapiens) (P04637 whole entry): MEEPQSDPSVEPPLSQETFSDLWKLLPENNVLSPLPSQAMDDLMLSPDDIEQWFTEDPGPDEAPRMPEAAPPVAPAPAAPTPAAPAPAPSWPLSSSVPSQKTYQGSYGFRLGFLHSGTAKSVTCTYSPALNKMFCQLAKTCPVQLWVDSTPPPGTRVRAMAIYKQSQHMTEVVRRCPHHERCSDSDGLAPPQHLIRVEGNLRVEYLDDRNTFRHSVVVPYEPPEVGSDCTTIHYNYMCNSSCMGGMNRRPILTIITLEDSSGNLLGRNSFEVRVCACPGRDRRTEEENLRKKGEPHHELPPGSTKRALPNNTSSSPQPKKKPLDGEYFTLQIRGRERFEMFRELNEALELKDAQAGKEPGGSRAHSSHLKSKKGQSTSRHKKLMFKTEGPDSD
substance,measurement,setting,value
BCL-xL (from UniProt Q07817),Kd,[1],1 µM
same,Kd,[2],17 µM
